For 72 sequences, protein stability index results are on record in the supplement of paper PMC10567573.

This data set is described as follows: protein stability index of a GFP-peptide fusion (GPS, HEK-293T) (PSI 1-6); higher = more stable.
Where [1] appears, read: treatment: DMSO, c terminus: a fixed tail appended.
The mark [2] stands for this setting: treatment: MLN4924 1 uM, 8 h, c terminus: a fixed tail appended.
[3] abbreviates: treatment: DMSO, c terminus: native.
Setting [4] is: treatment: MLN4924 1 uM, 8 h, c terminus: native.

± gives the standard deviation.
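Note: 24-mer peptide tiles fused after GFP, lentivirally expressed, FACS-sorted into six equal bins by GFP/DsRed ratio, decoded by Illumina sequencing, PSI is the read-weighted mean bin number.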

Turning to SVPIDLQKVDQFDPFTVPTISFIC [PRIM1], the protein stability index is, setting by setting: under setting [1], 2.55 ± 0.44; under setting [2], 2.48 ± 0.74.
SASSPASVGDPCGGAICGGPDHRL [SLC25A25]: the protein stability index is, setting by setting: under setting [1], 4.43 ± 0.23; under setting [2], 4.58 ± 0.22.
In the case of ILDSLLFFYDCSNNPISEHFHPTV [TENT5C], the protein stability index is, setting by setting: under setting [1], 3.15 ± 0.71; under setting [2], 3.13 ± 0.68.
Taken in the same sequence, the figures for LQLLREENRALQQLLEQKQAYWAQ [CBY2] were 2.62 ± 0.18 and 2.94 ± 0.31.
For MGWEGPNSRVDDTFWASWRAFAQI [MIR22HG], in that order: 2.45 ± 0.28 and 2.21 ± 0.17.
Taken in the same sequence, the figures for LISHVLEQNQEGDAAYRKALDLAR [AUH] were 3.38 ± 0.55 and 3.09 ± 0.19.
SSCIPKAFGNPKFALQGLPLNCAP [IRX6]: the protein stability index came to 2.46 ± 0.25 under setting [1] and 2.75 ± 0.18 under setting [2].
For FYSQEWYARQHCPLKNPTFLDYVR [SOAT1], in that order: 2.4 ± 0.47 and 2.13 ± 0.25.
For PSLSTITSTSSSITSSIPDTERLD [DVL3], in that order: 5.23 ± 0.17 and 5.28 ± 0.16.
Turning to LCWDPVQRVLFSGSSDHSVIMWDI [WDFY2], the protein stability index runs as follows: under setting [1], 2.26 ± 0.34; under setting [2], 1.93 ± 0.45.
In the case of AWEPRSESQASRKEEGLPEEEPSH [ZNF8], the protein stability index is, setting by setting: under setting [1], 5.38 ± 0.59; under setting [2], 5.59 ± 0.1.
For VGGATLAQTTSEAAMEGATLDQTT [HDAC6], the protein stability index is, setting by setting: under setting [1], 5.44 ± 0.11; under setting [2], 5.39 ± 0.26.
For ERVYSLQHLDPQGAQELLEFTIRD [INTS4], in that order: 3.74 ± 0.42 and 3.69 ± 0.31.
For LQAKALQLIVTARTTRGLDPLFGM [INTS4], in that order: 2.88 ± 0.6 and 2.59 ± 0.66.
Sequence FHKQQWFNCIRAAIAPFQSAGSPP [NET1] had a protein stability index under setting [1] of 2.69 ± 0.58 and a protein stability index under setting [2] of 2.5 ± 0.3.
Consider KGKKLYPVVSAVWGHCEVTMRYIN [SPSB4], for which the protein stability index came to 2.43 ± 0.82 under setting [1] and 2.65 ± 0.6 under setting [2].
Taken in the same sequence, the figures for SKNEDRGEEEAESSISSTSNEQLK [ZMYND11] were 5.33 ± 0.63 and 5.49 ± 0.21.
Taken in the same sequence, the figures for VLDLEARGYIKPHVDSIKFCGATI [ALKBH7] were 2.14 ± 0.26 and 2.15 ± 0.42.
Taken in the same sequence, the figures for VTFKLDDGAISAHKPLLICSCEWM [RHOBTB1] were 3.08 ± 0.33 and 2.56 ± 0.62.
DLSPLLGFWQLPPPATQNTFGNST [PLAGL1]: the protein stability index reads like this: under setting [1], 2.36 ± 0.43; under setting [2], 2.5 ± 0.23.
For YNKPTDDIVLMAQALEKIFLQKVA [BRD3], in that order: 2.45 ± 0.54 and 2.06 ± 0.44.
On to IKPPCIPNGKENFSGGTSLWQNI [CAMK2D], for which the protein stability index by setting is: under setting [3], 3.2 ± 0.13; under setting [4], 3.2 ± 0.21.
EVESLTAARNACRAGTEPSDAIRV [TRIP13]: the protein stability index under setting [1] was determined as 4.33 ± 0.15 and the protein stability index under setting [2] was 4.51 ± 0.27.
Taken in the same sequence, the figures for DPCVISQEIMEKYNIKLKWTNQQK [CFHR2] were 3.19 ± 0.22 and 2.92 ± 0.22.
For WEEEEDHEKERPEHKSLESLADGG [FANCE], in that order: 5.46 ± 0.34 and 5.53 ± 0.19.
Take CGTKYPVEWAKFCCECGIRRMIL [ZC2HC1A]: the protein stability index reads like this: under setting [3], 3.11 ± 0.39; under setting [4], 3.53 ± 0.055.
For the sequence SQLSMKAGLENTVAETECRYALQL [KRT13], the protein stability index is, setting by setting: under setting [1], 3.37 ± 0.2; under setting [2], 3.35 ± 0.25.
Taken in the same sequence, the figures for HNIVFGDYTWTEFDEPFLTRNVQS [TRIP13] were 2.63 ± 0.06 and 2.61 ± 0.32.
For IYVIGDLDTGTNYDYVREFKRSTG [GAN], in that order: 2.18 ± 0.43 and 2.04 ± 0.43.
Taken in the same sequence, the figures for APLTISRVHAGSKAALAALCPGDL [PDLIM4] were 3.62 ± 0.37 and 3.65 ± 0.28.
Sequence YRMRNVHPKPKLVRVLESLLVSLV [CLCN6] displayed a protein stability index under setting [1] of 2.44 ± 0.75 and a protein stability index under setting [2] of 2.18 ± 0.35.
Taken in the same sequence, the figures for RKGLQHGFFDFETFDVDEYEHYER [CDC14A] were 3.93 ± 0.31 and 3.94 ± 0.41.
Turning to GGFPIIRDQIFRYVHDPECVATTG [FBXO3], the protein stability index by setting is: under setting [1], 2.14 ± 0.29; under setting [2], 2.7 ± 0.57.
Taken in the same sequence, the figures for QVGTLLFRSRSRLTHLSLSRRASE [CDC25B] were 2.93 ± 0.39 and 3 ± 0.13.
For SLQTGNHSNGPTDLSMKGGASTTS [NOL4L], in that order: 4.12 ± 0.25 and 4.31 ± 0.27.
Taken in the same sequence, the figures for VSGFCRSPPVMVAGGRVFVLPCIQ [FLOT1] were 2.43 ± 0.38 and 2.45 ± 0.5.
On to GLAFIAFTEAMTHFPASPFWSVMF [SLC6A17], for which the protein stability index came out at 3.15 ± 0.1 under setting [1] and 3.13 ± 0.51 under setting [2].
For TEEQTRQERQGPAKPEVLSIQWPG [NECAB1], in that order: 5.07 ± 0.058 and 5.14 ± 0.15.
As for PECGEIFAHSSNLLRHQRIHTGER [ZNF263], the protein stability index was 3.88 ± 0.24 under setting [1] and 3.91 ± 0.073 under setting [2].
For MTGTPKTQEGAKDLEVDMNKTEVT [ACSBG2], in that order: 5.64 ± 0.35 and 5.68 ± 0.27.
Regarding LEAEIATYRRLLEDGEDFNLGDAL [KRT18], the protein stability index came out at 4.41 ± 0.15 under setting [1] and 4.53 ± 0.25 under setting [2].
Taken in the same sequence, the figures for LVLSEDRKSVRYTRQKKNLPDSPL [TRIM15] were 3.48 ± 0.33 and 3.77 ± 0.15.
For PYQVNGVNPAYPESRYTSDYFISY [ETS1], in that order: 2.18 ± 0.18 and 2.27 ± 0.21.
With PPELTASRQSFRMAMGNPSEFFVD [DVL3], the protein stability index is, setting by setting: under setting [1], 4.17 ± 0.21; under setting [2], 3.83 ± 0.21.
As to WYRPMYKAFRSDSSFNFFVFFFIF [SCAMP3], the protein stability index runs as follows: under setting [1], 2.94 ± 0.34; under setting [2], 2.86 ± 0.54.
For DKVIELHKSHRGMTPAEAEMHFLE [EPB41L3], in that order: 4.51 ± 0.22 and 4.38 ± 0.14.
For LIQNEYRNGGSLADAISENYRIMS [WEE1], in that order: 2.38 ± 0.31 and 2.5 ± 0.48.
For EQSSARQKASLLIQQALTMFPGVL [TCF25], in that order: 2.51 ± 0.3 and 2.54 ± 0.3.
For IERMKQIYQQLSRYRGLGLLASVP [CRY1], the protein stability index was determined as 2.3 ± 0.49 under setting [1] and 2.36 ± 0.35 under setting [2].
For GGDEVDDSVSVNDIDLSLYIPRDV [ZC3H15], in that order: 4.62 ± 0.13 and 4.45 ± 0.61.
Taken in the same sequence, the figures for VQLQRIPLSAVYRICLGKFTFPGM [TPRG1] were 2.65 ± 0.69 and 2.21 ± 0.43.
For RIHVLPSLNPDGYEKAYEGGSELG [CPXM2], in that order: 3.93 ± 0.11 and 4.36 ± 0.36.
Regarding QWRIRNLPYPKDVYSVSVDQKERC [DPCD], the protein stability index was 3.32 ± 0.42 under setting [1] and 3.17 ± 0.21 under setting [2].
Taken in the same sequence, the figures for LTRKGLVRVVFFPLFSNWWIQVTS [PHTF1] were 3.06 ± 0.039 and 2.81 ± 0.71.
Turning to LPSHPLELSEKNFQLNQDKMNFST [POMP], the protein stability index runs as follows: under setting [1], 3.84 ± 0.29; under setting [2], 3.78 ± 0.21.
Turning to AALHMVIVAAFTWAFTLFFEVSE [KMT2E], the protein stability index is 2.48 ± 0.21 under setting [3] and 2.34 ± 0.16 under setting [4].
With PNAQYWSQFHSVRPQGPQLRQQQH [DNAJC4], the protein stability index under setting [1] came out at 3.62 ± 0.14 and the protein stability index under setting [2] is 3.76 ± 0.29.
As to LALGVSLLCNAITGITLLRVKFKS [PTGFR], the protein stability index amounted to 2.88 ± 0.48 under setting [1] and 2.73 ± 0.37 under setting [2].
Taken in the same sequence, the figures for GSTLAMLQRLKEQQFVIAGVLVED [ZBED1] were 2.22 ± 0.46 and 2.1 ± 0.19.
Taken in the same sequence, the figures for MSAKLGKSSSLLTQTSEECNGILT [ZNF396] were 3.99 ± 0.16 and 4.2 ± 0.22.
Taken in the same sequence, the figures for QRDLSPTAEDAELSDFEECEETGE [FCHSD1] were 5.55 ± 0.21 and 5.54 ± 0.21.
In the case of EVETEGPESADTGDKSESPDEANV [TOR1AIP2], the protein stability index runs as follows: under setting [1], 5.32 ± 0.41; under setting [2], 5.58 ± 0.3.
Taken in the same sequence, the figures for SPPVMVAGGRVFVLPCIQQIQRIS [FLOT1] were 2.15 ± 0.5 and 1.96 ± 0.27.
NIQAGINENDFYDGAWCAGRNDLQ [CPXM2] gave a protein stability index under setting [2] of 3.48 ± 0.71.
Sequence LKPLLSPSSETTVTVELPEADRAG [LYSMD4] came in with a protein stability index under setting [1] of 5.04 ± 0.23 and a protein stability index under setting [2] of 5.07 ± 0.28.
For TEDVGVVCSDKRIPGFKFDNSLIN [LOXL2], in that order: 3.76 ± 0.28 and 3.75 ± 0.3.
Taken in the same sequence, the figures for LHDIFENKTDVVLILELVSGGELF [DAPK3] were 1.87 ± 0.37 and 2.39 ± 0.58.
Taken in the same sequence, the figures for HPSGHWATCRLCGEQVGRGPGFHA [ZBED3] were 2.52 ± 0.069 and 3.05 ± 0.29.
Consider EVIYPQHSKLTDREKTNICYLSFP [DENND6A], for which the protein stability index was found to be 2.2 ± 0.43 under setting [1] and 2.54 ± 0.38 under setting [2].
For SRLLGAAAGQRSRPSTYYELLGVH [DNAJC4], in that order: 2.54 ± 0.57 and 2.52 ± 0.42.
Taken in the same sequence, the figures for QKFRNQFLSFSMYQSFVQFLQYYY [TMEM120A] were 2.42 ± 0.21 and 2.41 ± 0.17.
Taken in the same sequence, the figures for MCMVMRGVQKMNSKTVTSTMLGVF [GCH1] were 2.31 ± 0.43 and 2.56 ± 0.44.
